Reference: patent EP4818204A1 (Nanjing Leads Biolabs Co., Ltd., dated 2026)

Experiments:
human GDF1 protein [1] = molecular target: T1, human GDF1 protein (human, UniProt P27539 254-372, limits assumed); experiment: ELISA, coated protein
T1 construct: Bought
T1 sequence (looked up): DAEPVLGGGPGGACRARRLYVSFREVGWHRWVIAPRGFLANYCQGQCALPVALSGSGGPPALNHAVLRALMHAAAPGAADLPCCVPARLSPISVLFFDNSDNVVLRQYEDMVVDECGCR

human GDF2 protein [2] = molecular target: T2, human GDF2 protein (human, UniProt Q9UK05 320-429); experiment: ELISA, coated protein
T2 construct: Bought
T2 sequence (looked up): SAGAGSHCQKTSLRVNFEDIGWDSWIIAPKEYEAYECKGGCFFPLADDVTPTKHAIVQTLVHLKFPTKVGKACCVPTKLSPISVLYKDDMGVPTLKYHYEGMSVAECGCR

human GDF3 protein [3] = molecular target: T3, human GDF3 protein (human, UniProt Q9NR23 251-364, limits assumed); experiment: ELISA, coated protein
T3 construct: Bought
T3 sequence (looked up): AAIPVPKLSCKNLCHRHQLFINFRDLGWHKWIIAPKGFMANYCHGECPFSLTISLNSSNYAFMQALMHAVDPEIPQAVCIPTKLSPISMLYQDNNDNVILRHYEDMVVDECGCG

human BMP4 protein [4] = molecular target: T4, human BMP4 protein (human, UniProt P12644 293-408); experiment: ELISA, coated protein
T4 construct: Bought
T4 sequence (looked up): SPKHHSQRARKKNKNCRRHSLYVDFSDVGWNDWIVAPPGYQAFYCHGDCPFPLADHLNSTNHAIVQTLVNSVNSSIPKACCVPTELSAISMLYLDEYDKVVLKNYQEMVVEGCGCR

human GDF11 protein [5] = molecular target: T5, human GDF11 protein (human, UniProt O95390 299-407); experiment: ELISA, coated protein
T5 construct: Bought
T5 sequence (looked up): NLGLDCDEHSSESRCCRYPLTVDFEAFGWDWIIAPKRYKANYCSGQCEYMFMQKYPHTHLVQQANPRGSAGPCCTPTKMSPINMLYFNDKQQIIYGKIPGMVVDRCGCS

human TGFβ1 protein [6] = molecular target: T6, human TGFβ1 protein (human, UniProt P01137 279-390); experiment: ELISA, coated protein
T6 construct: Bought
T6 sequence (P01137 279-390 limits assumed): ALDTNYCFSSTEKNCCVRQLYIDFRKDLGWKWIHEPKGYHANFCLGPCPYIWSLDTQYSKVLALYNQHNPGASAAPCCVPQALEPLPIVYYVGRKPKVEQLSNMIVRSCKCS

human GFRα1 protein [7] = molecular target: T7, human GFRα1 protein (human, UniProt P56159 25-429, limits assumed); experiment: ELISA, coated protein
T7 construct: Bought
T7 sequence (looked up): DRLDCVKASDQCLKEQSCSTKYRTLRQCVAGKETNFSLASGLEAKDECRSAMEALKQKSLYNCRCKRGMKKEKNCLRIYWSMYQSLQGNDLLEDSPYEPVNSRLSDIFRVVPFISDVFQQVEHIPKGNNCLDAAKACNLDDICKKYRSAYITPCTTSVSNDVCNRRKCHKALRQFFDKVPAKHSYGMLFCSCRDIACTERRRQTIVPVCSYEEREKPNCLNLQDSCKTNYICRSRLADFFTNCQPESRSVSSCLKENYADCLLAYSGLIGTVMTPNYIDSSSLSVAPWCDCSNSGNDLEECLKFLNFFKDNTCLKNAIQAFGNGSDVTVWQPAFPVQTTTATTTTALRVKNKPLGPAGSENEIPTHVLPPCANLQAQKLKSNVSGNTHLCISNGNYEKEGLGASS

human BMP2 protein [8] = molecular target: T8, human BMP2 protein (human, UniProt P12643 283-396); experiment: ELISA, coated protein
T8 construct: Bought
T8 sequence (P12643 283-396 limits assumed): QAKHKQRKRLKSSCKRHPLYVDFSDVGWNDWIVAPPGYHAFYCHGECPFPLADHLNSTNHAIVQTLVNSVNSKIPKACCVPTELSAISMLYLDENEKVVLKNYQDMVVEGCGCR

human Activin A protein [9] = molecular target: T9, human Activin A protein (human, UniProt P08476 311-426); experiment: ELISA, coated protein
T9 construct: Bought; Activin A is by nature a dimer of inhibin beta A chains
T9 sequence (looked up): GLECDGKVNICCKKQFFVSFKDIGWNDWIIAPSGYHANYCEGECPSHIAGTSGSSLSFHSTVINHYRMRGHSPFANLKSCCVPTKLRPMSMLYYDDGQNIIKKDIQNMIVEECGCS

human Activin B protein [10] = molecular target: T10, human Activin B protein (human, UniProt P09529 293-407); experiment: ELISA, coated protein
T10 construct: Bought; Activin B is by nature a dimer of inhibin beta B chains
T10 sequence (looked up): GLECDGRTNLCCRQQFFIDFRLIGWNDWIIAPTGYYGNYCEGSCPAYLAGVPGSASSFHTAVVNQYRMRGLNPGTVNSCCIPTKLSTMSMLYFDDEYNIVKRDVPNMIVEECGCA

[11] = molecular target: human AMH protein (human) (UniProt P03971); experiment: ELISA, coated protein, antibody at 4 µg/mL
[12] = molecular target: human GDF8 protein (human) (UniProt O14793); experiment: ELISA, coated protein, antibody at 4 µg/mL
human GDF1 protein [13] = molecular target: T1, human GDF1 protein; experiment: ELISA, coated protein, antibody at 4 µg/mL
human GDF2 protein [14] = molecular target: T2, human GDF2 protein; experiment: ELISA, coated protein, antibody at 4 µg/mL
human GDF3 protein [15] = molecular target: T3, human GDF3 protein; experiment: ELISA, coated protein, antibody at 4 µg/mL
human BMP4 protein [16] = molecular target: T4, human BMP4 protein; experiment: ELISA, coated protein, antibody at 4 µg/mL
human GDF11 protein [17] = molecular target: T5, human GDF11 protein; experiment: ELISA, coated protein, antibody at 4 µg/mL
human TGFβ1 protein [18] = molecular target: T6, human TGFβ1 protein; experiment: ELISA, coated protein, antibody at 4 µg/mL
human GFRα1 protein [19] = molecular target: T7, human GFRα1 protein; experiment: ELISA, coated protein, antibody at 4 µg/mL
human BMP2 protein [20] = molecular target: T8, human BMP2 protein; experiment: ELISA, coated protein, antibody at 4 µg/mL
human Activin A protein [21] = molecular target: T9, human Activin A protein; experiment: ELISA, coated protein, antibody at 4 µg/mL
human Activin B protein [22] = molecular target: T10, human Activin B protein; experiment: ELISA, coated protein, antibody at 4 µg/mL
Human GDF15 protein = molecular target: T11, Human GDF15 protein (human, UniProt Q99988 197-308); experiment: ELISA, coated protein, antibody at 4 µg/mL
T11 construct: Natural GDF15 is said to be a disulfide-linked homodimer; also called Human-GDF15-his
T11 sequence: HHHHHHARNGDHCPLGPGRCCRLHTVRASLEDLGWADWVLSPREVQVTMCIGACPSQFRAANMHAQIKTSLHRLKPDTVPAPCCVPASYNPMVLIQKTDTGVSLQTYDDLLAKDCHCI

Binder | binding result (human GDF1 protein [1]) | binding result (human GDF2 protein [2]) | binding result (human GDF3 protein [3]) | binding result (human BMP4 protein [4]) | binding result (human GDF11 protein [5]) | binding result (human TGFβ1 protein [6]) | binding result (human GFRα1 protein [7]) | binding result (human BMP2 protein [8]) | binding result (human Activin A protein [9]) | binding result (human Activin B protein [10]) | OD value (OD 450 nm-620 nm) [11] | OD value (OD 450 nm-620 nm) [12] | OD value (human GDF1 protein [13]) [OD 450 nm-620 nm] | OD value (human GDF2 protein [14]) [OD 450 nm-620 nm] | OD value (human GDF3 protein [15]) [OD 450 nm-620 nm] | OD value (human BMP4 protein [16]) [OD 450 nm-620 nm] | OD value (human GDF11 protein [17]) [OD 450 nm-620 nm] | OD value (human TGFβ1 protein [18]) [OD 450 nm-620 nm] | OD value (human GFRα1 protein [19]) [OD 450 nm-620 nm] | OD value (human BMP2 protein [20]) [OD 450 nm-620 nm] | also measured
HuVHH43-3 (Fc fusion, also called huVHH43-IgG1-mut(L234A,L235A,G237A); VHH humanized anti-GDF15 antibody) heavy: QLQLVESGGGLVQPGGSLRLSCAASGHTYGMGWFRQAPGKAREIVSAISRSGSSTYYADSVKGRFTISRDNSKNTLYLQMNSLRAEDTAVYICGASTSALVPTTTGMYAYWGQGTRVTVSSEPKSSDKTHTCPPCPAPEAAGAPSVFLFPPKPKDTLMISRTPEVTCVVVDVSHEDPEVKFNWYVDGVEVHNAKTKPREEQYNSTYRVVSVLTVLHQDWLNGKEYKCKVSNKALPAPIEKTISKAKGQPREPQVYTLPPSREEMTKNQVSLTCLVKGFYPSDIAVEWESNGQPENNYKTTPPVLDSDGSFFLYSKLTVDKSRWQQGNVFSCSVMHEALHNHYTQKSLSLSPGK | no binding (tested: 4 µg/mL) | no binding (tested: 4 µg/mL) | no binding (tested: 4 µg/mL) | no binding (tested: 4 µg/mL) | no binding (tested: 4 µg/mL) | no binding (tested: 4 µg/mL) | no binding (tested: 4 µg/mL) | no binding (tested: 4 µg/mL) | no binding (tested: 4 µg/mL) | no binding (tested: 4 µg/mL) | 0.0485 | 0.0421 | 0.0504 | 0.0644 | 0.0406 | 0.0539 | 0.04 | 0.055 | 0.27 | 0.0538 | OD value (human Activin A protein [21]): 0.0493 OD 450 nm-620 nm; OD value (human Activin B protein [22]): 0.062 OD 450 nm-620 nm; OD value (Human GDF15 protein): 3.21 OD 450 nm-620 nm
Hu19C4C7 (antibody, human IgG1, kappa, Humanized form of murine 19C4C7; human IgG1 constant region with L234A, L235A, G237A and kappa light chain constant region; also called hu19C4C7-IgG1-mut(L234A,L235A,G237A)) heavy: QVQLVQSGAEVKKPGSSVKVSCKASGYSFTGYIMNWVRQAPGQSLEWMGDIDPYYGGPNYNQKFQGRVTITVDKSTSTAYMELSSLRSEDTAVYYCSRRDYNYGSFAYWGQGTLVTVSSASTKGPSVFPLAPSSKSTSGGTAALGCLVKDYFPEPVTVSWNSGALTSGVHTFPAVLQSSGLYSLSSVVTVPSSSLGTQTYICNVNHKPSNTKVDKKVEPKSCDKTHTCPPCPAPEAAGAPSVFLFPPKPKDTLMISRTPEVTCVVVDVSHEDPEVKFNWYVDGVEVHNAKTKPREEQYNSTYRVVSVLTVLHQDWLNGKEYKCKVSNKALPAPIEKTISKAKGQPREPQVYTLPPSREEMTKNQVSLTCLVKGFYPSDIAVEWESNGQPENNYKTTPPVLDSDGSFFLYSKLTVDKSRWQQGNVFSCSVMHEALHNHYTQKSLSLSPGK light: QIVLTQSPATLSLSPGERATLSCRASSSVNYMHWYQQKPGQAPRPLIYATSNLATGIPARFSGSGSGTDYTLTISSLEPEDFAVYYCQQWSDNPPTFGQGTKLEIKRTVAAPSVFIFPPSDEQLKSGTASVVCLLNNFYPREAKVQWKVDNALQSGNSQESVTEQDSKDSTYSLSSTLTLSKADYEKHKVYACEVTHQGLSSPVTKSFNRGEC | no binding (tested: 4 µg/mL) | no binding (tested: 4 µg/mL) | no binding (tested: 4 µg/mL) | no binding (tested: 4 µg/mL) | no binding (tested: 4 µg/mL) | no binding (tested: 4 µg/mL) | no binding (tested: 4 µg/mL) | no binding (tested: 4 µg/mL) | no binding (tested: 4 µg/mL) | no binding (tested: 4 µg/mL) | 0.0464 | 0.0423 | 0.0433 | 0.0678 | 0.0418 | 0.0432 | 0.0368 | 0.0437 | 0.0468 | 0.0457 | OD value (human Activin A protein [21]): 0.0577 OD 450 nm-620 nm; OD value (human Activin B protein [22]): 0.136 OD 450 nm-620 nm; OD value (Human GDF15 protein): 3.27 OD 450 nm-620 nm
Hu21H6D2 (antibody, human IgG1, kappa, V domains shown, Humanized form of murine 21H6D2; human IgG1 constant region with L234A, L235A, G237A and kappa light chain constant region; also called hu21H6D2-IgG1-mut(L234A,L235A,G237A)) VH: QVQLVQSGAEVKKPGASVKVSCKASGYTFTGYIMNWVRQAPGQRLEWMGDIDPYYGDAKYNQKFKGKVTITVDKSASTAYMELSSLRSEDTAVYYCARRDYDHGSFAYWGQGTLVTVSS VL: EIVLTQSPDFQSVTPKEKVTITCSASSSVNYMHWYQQKPDQSPKRLIYDTSKLASGVPSRFSGSGSGTDYTLTINSLEAEDAATYYCQQWSSNPPTFGQGTKLEIKR | no binding (tested: 4 µg/mL) | no binding (tested: 4 µg/mL) | no binding (tested: 4 µg/mL) | no binding (tested: 4 µg/mL) | no binding (tested: 4 µg/mL) | no binding (tested: 4 µg/mL) | no binding (tested: 4 µg/mL) | no binding (tested: 4 µg/mL) | no binding (tested: 4 µg/mL) | no binding (tested: 4 µg/mL) | 0.0537 | 0.0426 | 0.0412 | 0.0648 | 0.041 | 0.0411 | 0.0426 | 0.0426 | 0.0655 | 0.0683 | OD value (human Activin A protein [21]): 0.0632 OD 450 nm-620 nm; OD value (human Activin B protein [22]): 0.0899 OD 450 nm-620 nm; OD value (Human GDF15 protein): 3.17 OD 450 nm-620 nm
